A protein production outcome set (Wang et al. 2014)

Test: label from the status in PepcDB records

Sequence | protein production
MPVNSILGVFAKSPIKPLQEHMDKVYDCASLLVPFFEATITGNWDDAVQIRKQISLAEKQGDSLKREIRLTLPSGLFMPVERTDLLELLTQQDKIANKAKDISGRVIGRQLLIPQALQVPFIAYLQRCIDAVGLAQQVINELDDLLEAGFRGREVDFVAKMINELDIIEEDTDDLQIQLRRQLFALESELNPVDVMFLYKTIEWVGGLADLAERVGSRLELMLARV | not failed
PPQAMNALMRLNQLKPGLQYKLVSQTGPVHAPIFTMSVEVDGNSFEASGPSKKTAKLHVAVKVLQDMGLPTGAEGRDSSKGEDS | failed
MTGQAAGPAAGPAAGQATKHAGGRRPGETRTREAILTAARVCFAERGFDATSLRRIAETAGVDQSLVHHFYGTKENLFLQALELPGKIEEAITAAAQGGLDGIGERVVRAHLSVWDDVSSRPALMTMVRSAAIHRAAAARLRETATGILARALGGVITGEDAMLRTSMVATQLVGLAMMRYVAHLEPLASADTDTVARHYGRAVQAIVTDRD | not failed
MIIVGFIGLVLVIILSAVLSLLRARSEALRQQQQFLAQLCPQLERQKTDRSPLNIPVVPQECEPLYHALNEMLAALPAGMGKDKLTGLINRVGLKRTLASLMPITQGTLVLIDIYRFRYVNDLLGFVFGDILLKQFAERLTSLSLKPKLIARLNGDEFFLYYEQSLSQEQLLHLRGRLQVPFNIKDTPVSVRLQIGCLQLAQHHADVSNMLRRLDLALKKARSTRIAIACYSENDDIRQLRELKIIDSLPNGLQRNHLYMVYQPKQDVSSEGCTQVEALIRWEHEELGVISPGEFIPLAECAGMIDLVSHWALEQVLQQQVKWRLAGISVCVALNLSTRDLDSETLPHELDARLKHYQLPPECLMIEITESTLMADLNKAVDTLVQIRRLGIHLAIDDFGTGHSSLAYLKHLPANEVKIDKVFLQDLKPNQPSEYILEASVNIAKKLGYEVTVEGVETQEVRDLLVKMGVDRIQGLCYAKPMRAVELEMHWHRLCPAPKMLSANLGSHP | failed
MKIAIIRKIPTRPEQISRPSHSARAGPETHCSMPCGFAASRKAGRIAVKETIKEIVMGMLVEGVWKDVWYDTKETKGHFKRSASQFRNWVTVDGAVGPSGEGGFEAEKDRYHLYVSFACPWAHRTLIFRKLKKLEDLISVSVVDPLMLENGWEFKPEGERTPGATQDHLFGSSTLWQVYTKADPTYSGRVTVPVLWDKKRGTIVSNESAEIIRMFNVAFNDLTGSDADYYPKALRAEIDALNDVIYDTVNNGVYKAGFATTQDAYQQNAVKVFETLDMLEDRLKDRRFLFGSEQTEADWRLFTTLVRFDPVYVGHFKCNIRRIHDYPHLTGYLRDLYQTPGVPDTVDMRHIKEHYYRSHRTINPTGIVPIGPELDLTMAHGREALS | failed
MTPPIINLPQRLGRSRRLAYGAATAGAWMVYFYLWAPLATLIAWFFGLRSAYTELYLQHNALDPFALGSLPVIALMSAITTVGWAEYNRLRFVNADKRRRPRTVAEPDVDQRLGATEQLGTLLRHSRISSVAMDKFARPVAVRVVRHR | failed
MEFGYIGLMVSVVLIGISVYGFLNSKNIVRIFLSSEILVNASILIVFSVSSLTNQVYLPIYFSLFAIGMALVEIVVAFAAIFLYYKNKGSLEVE | failed
MTSLNVLVAVCMAYVILLFGVAFAADRLSSTGRTTWLRSPLVYTLSLSIYCTAWTFYGAVGYAARSGLEFVTIYLGPTLVMIGWWWGLRKLVRVGRSQRVTSIADLISSRYGKSNTLAVCVTLLAVIGVTPYIALQLQSITLSFDIFAEADPVSRPGEGSSAFWVACGLAVFAILFGTRNLDANERHHGVVTAVAIEAVVKLVALLAVGVFVVWGIAGGLGDTLARIDASEIGVWQVDHGRWATITFLAAAAFVCLPRMFQVMVVENDDERHLRTAAWAFPLYLMLMSLFVVPIAVVGLELMPEGANPDLFVLTIPLAEGQETLAMLSFLGGFSSATSMVIVAAMALSTMVSNHIVMPIWLNAQGSGASVSGDVRSVVLYARRVSIAVILALGYFYYRLSGGGAALASIGLIAFAGIAQILPALVGGLFWRGATRTGALVGLTVGFVLWLYTLLLPGMGAGVIAPQVMEHGLFGLSWLRPQALFGIAGMDPMVHSVMWSLSLNTAAFCIASLLSFPSPLERLQGAQFVNVFDHSAGPRGWTGSVAQSEDLMIMSQRIMGAREAQEFFQSEAMAQGSRAYLPEPTPAFLERLERELSGSVGAATAHAMIGQIVGGSSVSVEDLLAVADESAQLLEYSSRLEAKSAELSRTARKLREANEKLTQISLQKDAFLSQISHELRTPMTSIRAFSEILRDTDGLAPVDKTRYAAIIHDEALRLTRLLDDLLDLSVLENGQVTLNMGQGRLVDVLDRAMATALTGTDRPLRVRRHRGAERIVLRTDLDRLSQVFINLITNAQKYCDAADPELSVTVHDVGGRIVVDLIDNGSGIPRDARKMVFEKFARVGAEKAGGAGLGLAICREIMQRLGGDISYLSGQEGGAFRVSLPVGMEIAAQ | failed
MKLVVCSESDTAGQNIKDNLLTFADFEEKDVGEFKLYLSDEFYIAETKERLIYADHIDEKLAKYIDFEEILFASRHSSKDGRKIFTVHVSGNVGTADFGGKPYSLAKPSPQTMKNYVLALRERLDRKPEFEFTMEVTHHGPSEISKPSAFYEIGSTEEEWKDREAAEVVAEAMLDAIRAEKMDWNVAVGVGGTHYAPRQTEIMLTTTFTFGHNFAKYTFEHLTAEFLVKAVKLSEAEYIIIDEKSVNSAVKKIVNEAAEVAGVEVLKSKKVKKDFRLV | not failed
SKKPYIVTIACTKGGSAKSTNAANIGAFCADHGLRTLLIDTDTQPTLSSYYSLAKTAPGGIYEFLLQRDVEPSHIVSQTSIKNLDLIQSNDPSNNVSHMLRNAPDGSIRFSHLIKSINNYDVIVIDTRGTRDITVDMSVLAADILFCPILPQILSAKEFIRGTIGMYQDLQTFESFGFKLPPLKAIANGVDNTNDVKFVMQKLHTLFANTFDES | failed
RIVSTLNERLAGLTLHEIRDTYEERLDDLPDETGLIALVLDEASILFSEPDEGRLQFDGTQNILSQPEFQEPDDMRHLIETIEDEDRIVQVIENLFEANPDAVGQAVVRIGSETDQEEMDAYSIVLSPYQLGDTVGSLGVIGPKRMDYGRAVALVENMAAVVNRPADDETTD | failed
MNRIEHYHDWLRDAHAMEKQAESMLESMASRIDNYPELRARIEQHLSETKNQIVQLETILDRNDISRSVIKDSMSKMAALGQSIGGIFPSDEIVKGSISGYVFEQFEIACYTSLLAAAKNAGDTASIPTIEAILNEEKHMADWLIQHIPQTTEKFLIRSETDGVEAKK | not failed
MQDSKIPPFSEAKRMKIPTPKQPLTQLPPRIGKKVSNRSKSNQVHAISHQLEMSPNSDSSPGNEYRALRRKYLLLEEDSFALERELKEAEDEVKALEDEKLELLDKLVVMEGLVDP | failed
MPPPAAAAGLAGRPGRGAGSRLRPAVAAAGRRAHMIRCRHGGPRLQDIRNTVGNVPLEWYDDFPHVGYDLDGRRIYKPLRTRDELDQFLDKMDDPDYWRTVQDPMTGRDLRLTDEQVALVRRLQSGQFGDVGFNPYEPAVDFFSGDVMIHPVTNRPADKRSFIPSLVEKEKVSRMVHAIKMGWIQPRRPRDPTPSFYDLWAQEDPNAVLGRHKMHVPAPKLALPGHAESYNPPPEYLLSEEERLAWEQQEPGERKLSFLPRKFPSLRAVPAYGRFIQERFERCLDLYLCPRQRKMRVNVDPEDLIPKLPRPRDLQPFPTCQALVYRGHSDLVRCLSVSPGGQWLVSGSDDGSLRLWEVATARCVRTVPVGGVVKSVAWNPSPAVCLVAAAVEDSVLLLNPALGDRLVAGSTDQLLSAFVPPEEPPLQPARWLEASEEERQVGLRLRICHGKPVTQVTWHGRGDYLAVVLATQGHTQVLIHQLSRRRSQSPFRRSHGQVQRVAFHPARPFLLVASQRSVRLYHLLRQELTKKLMPNCKWVSSLAVHPAGDNVICGSYDSKLVWFDLDLSTKPYRMLRHHKKALRAVAFHPRYPLFASGSDDGSVIVCHGMVYNDLLQNPLLVPVKVLKGHVLTRDLGVLDVIFHPTQPWVFSSGADGTVRLFT | failed
MTLATRSMQPHAVSPGQARSWPLPAAGWLLLAVGVWLAFLSWMRPLALPDEGRYAGVAWDMLRNGSFAVPLIDGMPYFHKPPLYYWLAELSFRLFGVNEWAVRLPSALAAWASAVALYLFVRRHRDAASATLCVLVLATLPLFFGGAQYANMDMLVAGMITLCVLAGADTALRVRGGQAWRAMALATGVCAALAMLAKGLIGLVLPGAILLAWLAWRRDWRGLRALLWPPAILAFAVVAVPWFWLMQVRYPGFFQYFFVHQHFERFAQTGFNNVQPFWFYLPVIAGLALPWSLWAGGLLRKQFWAADADPDGLRRLALVWLAVIVAFFSMPQSKLVGYIMPVLPPLAFLLAEVVMGALRDPAVARATRRMARVSALVAVAICVTAVFVASFNARGSSRELALSLRGELRPDDTLVALHTYPFDLQLYAHAARPMWVVDDWSNPEIPKRDNWRRELYDAVQFEPALGERLLVSADTFQQRLCQAPEGSRYWVWGTAADEEAYAPLRGQAARFADARRSLWLVLVDEAFKGRVCDGTPTGG | failed
MNKNQMLLGSFLCLLAVTAWGFMFPVMARALQFIDPFFFTTLRYGSAAIIFLILLLITEGKTSLRLEKRTLSLFFYGTVGFAGYGFLVFYGQQLAGPSGAIHAAMIQSLMPLIALSLQWITQNRRPQNYTFLCMFVALLGVMLVISKGNIELLFGAASHLSTNILMLCGVTCWVIYTNGAARFQSWSPLRYTTLTCLFGSISLIVIVTFLTYTNIVTMPSLRTVVSVRFELFYMSIIAGVIAVFCWNMGNRYISSINGILFMNLVPILALIGSIFRGYTVDKIEIAGAALTIIALLCNNLWQRKVNIKIPTSVR | failed
MADNTNVTRRSFLTATGAAAGSVALVGVSAGESDDPWNSDRSEYIVGVSNVEDDPQQHVEQYLQGQEQVGSVQERLNTAVVGLPADAPESVRKQFVDRLESRDTIKYVEQNVELQAQLVPNDPRFGDQYADQQVNAPEAWDTTTGDAGVTIGVVDQGVKYDHPDLDGNIDRSVSNGGRDFVDDDGDPYPDSLNEEIHGTHVAGIAAAEVNNGNGVTGIGNSSVIAGRALSERGSGSTADIADAITWAANEGADVINLSLGGGGYTNTMQNAVTYAANQGALVVAAAGNDGSGSVSYPAAYGGVLAVSALDPDESLASYSNYGPKIDLAAPGTNVLSTWTADDYESISGTSMATPVVAGVAGLTLAQWELSNAELRNHLKATAVDIGLSDRQQGAGRVDAANAVNTDPGSGGGGGGGGGGDSTSSSVSGSLRGRGDSNCWSFSYEYSNPSQVVIELDGPGNADFDLYANTSTNACPTTSSYEFRSWTTGSQESITIDNPDTSVDLNVLAYAYSGRGDLTVTVTEYK | failed
MSGKRALITGIRGQDGAYLAKLLLEKGYEVYGADRRSGEFASWRLKELGIENDVKIIHMDLLEFSNIIRTIEKVQPDEVYNLAAQSFVGVSFEQPILTAEVDAIGVLRILEALRTVKPDTKFYQASTSEMFGKVQEIPQTEKTPFYPRSPYAVAKLFGHWITVNYREAYNMFACSGILFNHESPLRGIEFVTRKITYSLARIKYGLQDKLVLGNLNAKRDWGYAPEYVEAMWLMMQQPEPDDYVIATGETHTVREFVEKAAKIAGFDIEWVGEGINEKGIDRNTGKVIVEVSEEFFRPAEVDILVGNPEKAMKKLGWKPRTTFDELVEIMMEADLKRVRDREVSV | not failed
MVPTPKPVVDRMLELADVDETDVLYDLGSGDGRIVIRAARTHGARGVGIEIDPDLVKKARKNAKEAGVADLVEFRQGDLFEADISEATVVTLYLLPSVNQKLRPILFEQLSPGTPVVSHDFDMGRWAPDRTVDLEGDTVYRWTIPLEHHHHHH | failed
